From publication PMC8956199, “The mismatched nucleotides encoded in vaccinia virus flip-and-flop hairpin telomeres serve an essential role in virion maturation” come the findings set out here.

For data set [1], the target named is T1, I1 telomere-binding protein (UniProt P16714 1-312).
T1 sequence: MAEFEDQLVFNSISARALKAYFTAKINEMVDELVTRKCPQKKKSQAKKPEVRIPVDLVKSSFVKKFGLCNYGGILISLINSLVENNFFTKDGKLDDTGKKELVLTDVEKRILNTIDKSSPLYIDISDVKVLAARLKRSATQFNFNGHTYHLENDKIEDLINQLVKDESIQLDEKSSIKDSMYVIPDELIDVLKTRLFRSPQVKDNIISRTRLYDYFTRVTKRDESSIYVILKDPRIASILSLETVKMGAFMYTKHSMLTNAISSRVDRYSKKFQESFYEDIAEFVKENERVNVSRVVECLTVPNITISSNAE
Description: EMSA, competition; 700 ng poly d(IC), 0-300 ng unlabeled S hairpin; behaved much like S. The note with it: protein: recombinant; tags: His6 (pET151/D-TOPO vector); label: 3' fill-in with Alexa Fluor 647-aha-dUTP (Results say Cy5-dUTP). For orientation: In EMSA bound probe runs differently from free probe, usually more slowly.

Data set [2] has as its target T1, I1 telomere-binding protein. Nature of the data set: EMSA, competition; 700 ng poly d(IC), 0-300 ng unlabeled S hairpin; reference. The note with it: protein: recombinant; tags: His6 (pET151/D-TOPO vector); label: 3' fill-in with Alexa Fluor 647-aha-dUTP (Results say Cy5-dUTP).

B1: SΔ1–3 hairpin (structured_DNA)
DNA: ACATTTTTTTCTAGACACTAAATAAAATATTTAAAATATAATATTAATGTACTAAAATTATATATTAATTTACTAACTAAAGTTAGTAAATTAATATATAATTTTATAATTAATTTAATTTTACTAATTTTATTTAGTGTCTAGAAAAAAA
modifications: 5' phosphate
Take B1: the binding result in data set [1] is “binds”.

B2: S hairpin (VACV WR telomere, wild type) (structured_DNA)
DNA: ACATTTTTTTCTAGACACTAAATAAAATATTTAAAATATAATATTAATGTACTAAAACTTATATATTATTAATTTATCTAACTAAAGTTAGTAAATTATATATATAATTTTATAATTAATTTAATTTTACTAATTTTATTTAGTGTCTAGAAAAAAA
modifications: 5' phosphate
Turning to B2, the binding result in data set [2] is reported as “binds”.
